Marks after values point to notes of the source that are not given here.
Columns and labels:
[1] = test system: KT-16 xenograft (Rhabdoid); assay: PPTP in vivo xenograft KT-16; settings: KT-16 (Rhabdoid) xenograft, 0.5 mg per mouse ip twice weekly for four weeks
Description: (§1) The PPTP includes a molecularly characterized in vitro panel of cell lines (n=27) and in vivo panel of xenografts (n=61) representing most of the common types of childhood solid tumors and childhood ALL (acute lymphoblastic leukemia). LCF/HCA anti-IGF1R antibody was tested against the PPTP in vitro panel at concentrations ranging from 0.01 nM to 100 nM; and was tested against the PPTP in vivo panel at a dose of 0.5 mg per mouse administered twice weekly for four weeks via intraperitoneal injection. Three measures of antitumor activity were used: 1) response criteria modeled after the clinical setting; 2) treated-to-control (T/C) tumor volume at day 21; and 3) a time to event (4-fold increase in tumor volume) measure based on the median EFS of treated and control lines (intermediate activity required EFS (event-free survival) T/C>2, and high activity additionally required a net reduction in median tumor volume at the end of the experiment).
(§2) Stage 1 testing involved testing an agent across the entire PPTP panel of childhood cancer xenograft lines at its maximum tolerated dose (MTD) or at a dose selected based on PK/PD (pharmacokinetic/pharmacodynamic) studies using adult preclinical models.
(§3) In vivo solid tumor testing: For each xenograft line, 10 mice bearing subcutaneous (SC) tumors initiated treatment when the tumors were between 0.2-0.5 cm^3 in volume. Two perpendicular tumor diameters were measured at once weekly intervals with digital vernier calipers. Assuming tumors to be spherical, volumes were calculated from the formula (π/6)×d3, where d represented the mean diameter.
(§4) Drug: LCF/HCA was dissolved in 20mM sodium acetate pH 5 buffer containing 150 mM sodium chloride, and administered intraperitoneally twice weekly for 4 consecutive weeks at a dose of 0.5 mg per animal. […]
(§5) Median Group Response: Each individual mouse in each treatment group was assigned a response score (see Tables above) and a median score for the treatment group was calculated and then each treatment group was assigned an overall response according to the table below. […]

[2] = test system: NB-EBc1 xenograft (Neuroblastoma); assay: PPTP in vivo xenograft NB-EBc1; design: key to EFS activity notation (high, intermediate, indeterminate): high (!); intermediate (#); indeterminate (^)
Description: as §1, §2, §3
(§6) Drug: LCF/HCA was dissolved in 20mM sodium acetate pH 5 buffer containing 150 mM sodium chloride, and administered intraperitoneally twice weekly for 4 consecutive weeks at a dose of 0.5 mg per animal. The antibody was provided to each testing site in coded vials for blinded testing according the PPTP's standard operating procedures.
(§7) Median Group Response: Each individual mouse in each treatment group was assigned a response score (see Tables above) and a median score for the treatment group was calculated and then each treatment group was assigned an overall response according to the table below.
(§8) Statistical Methods: Event-free survival (EFS) distributions of each treatment group were compared to the EFS distribution of the respective control group using the exact log rank test. P-values were 2-sided & were not adjusted for multiple comparisons given the exploratory nature of this study. P-values<0.05 were considered to be significant.

[3] = test system: D645 xenograft (Glioblastoma); assay: PPTP in vivo xenograft D645; design: key to EFS activity notation (high, intermediate, indeterminate): high (!); intermediate (#); indeterminate (^)
Description: as §1, §2, §3, §6, §7, §8

[4] = test system: ALL-7 xenograft (ALL B-precursor); assay: PPTP in vivo leukemia xenograft ALL-7; settings: ALL-7 (ALL B-precursor) xenograft; 0.5 mg per mouse ip twice weekly for four weeks
Description: The PPTP includes a molecularly characterized in vitro panel of cell lines (n=27) and in vivo panel of xenografts (n=61) representing most of the common types of childhood solid tumors and childhood ALL (acute lymphoblastic leukemia). LCF/HCA anti-IGF1R antibody was tested against the PPTP in vitro panel at concentrations ranging from 0.01 nM to 100 nM; and was tested against the PPTP in vivo panel at a dose of 0.5 mg per mouse administered twice weekly for four weeks via intraperitoneal injection. […]
In vivo acute lymphoblastic leukemia testing: For each xenograft line, 8 mice were inoculated with 3-5×10^6 mononuclear cells purified from the spleens of secondary recipient mice. Engraftment was monitored weekly by flow cytometry, and treatment was initiated when the proportion of human CD45+ cells in the peripheral blood reached 1%. The proportion of human CD45+ cells in the peripheral blood was monitored weekly throughout the course of treatment. […]
as §5

[5] = test system: BT-46 xenograft (Medulloblastoma); assay: PPTP in vivo xenograft BT-46; settings: BT-46 (Medulloblastoma) xenograft, 0.5 mg per mouse ip twice weekly for four weeks
Description: as §1, §2, §3, §4, §5

[6] = test system: Rh41 xenograft (ALV Rhabdomyosarcoma); assay: PPTP in vivo xenograft Rh41
Excerpt: The PPTP includes a molecularly characterized in vitro panel of cell lines (n=27) and in vivo panel of xenografts (n=61) representing most of the common types of childhood solid tumors and childhood ALL (acute lymphoblastic leukemia).
as §2, §3
The antibody was provided to each testing site in coded vials for blinded testing according the PPTP's standard operating procedures.
as §7, §8

[7] = test system: KT-14 xenograft (Rhabdoid); assay: PPTP in vivo xenograft KT-14; design: key to EFS activity notation (high, intermediate, indeterminate): high (!); intermediate (#); indeterminate (^); settings: KT-14 (Rhabdoid) xenograft, 0.5 mg per mouse ip twice weekly for four weeks
Description: as §1, §2, §3, §6, §7, §8

[8] = test system: SK-NEP-1 xenograft (Ewings); assay: PPTP in vivo xenograft SK-NEP-1; settings: SK-NEP-1 (Ewings) xenograft, 0.5 mg per mouse ip twice weekly for four weeks
Description: as §1, §2, §3, §4, §5

[9] = test system: NB-1691 xenograft (Neuroblastoma); assay: PPTP in vivo xenograft NB-1691; settings: NB-1691 (Neuroblastoma) xenograft, 0.5 mg per mouse ip twice weekly for four weeks
Description: as §1, §2, §3, §4, §5

[10] = test system: Rh30R xenograft (ALV Rhabdomyosarcoma); assay: PPTP in vivo xenograft Rh30R
Description: as §1, §2, §3, §6, §7, §8

[11] = 0.5 mg per mouse ip twice weekly for four weeks
[12] = day 21, 0.5 mg per mouse ip twice weekly for four weeks

B1: LCF/HCA: fully human anti-IGF1R antibody comprising the mature 19D12/15H12 light chain F (LCF) and mature heavy chain A (HCA) (antibody, V domains shown)
VH: EVQLVQSGGGLVHPGGSLRLSCAASGFTFSSFAMHWVRQAPGKGLEWISVIDTRGATYYADSVKGRFTISRDNAKNSLYLQMNSLRAEDMAVYYCARLGNFYYGMDVWGQGTTVTVSS
VL: EIVLTQVPDFQSVTPKEKVTITCRASQSIGSSLHWYQQKPDQSPKLLIKYASQSLSGVPSRFSGSGSGTDFTLTINSLEAEDAAAYYCHQSSRLPHTFGGGTKVEIKRT
- EFS T/C [1]: 1.2
- Median Final RTV [1]: >4
- Tumor Volume T/C ([1]; day 21): 0.5
- EFS T/C [2, 11]: > 2.0
- EFS activity notation (high, intermediate, indeterminate) [2, 11]: #
- Median Final RTV [2, 11]: 1.4#
- Overall Group Response [2, 11]: PD2 (1 < MS ≦ 3)
- Tumor Volume T/C [2, 12]: 0.8
- EFS T/C [3, 11]: 2.2
- EFS activity notation (high, intermediate, indeterminate) [3, 11]: #
- Median Final RTV [3, 11]: >4#
- Overall Group Response [3, 11]: PD2 (1 < MS ≦ 3)
- Tumor Volume T/C [3, 12]: 0.58
- EFS T/C [4]: 1
- Median Final RTV [4]: >25
- EFS T/C [5]: 1.2
- Median Final RTV [5]: >4
- Tumor Volume T/C ([5]; day 21): 0.69
- EFS T/C [6, 11]: 1.1
- Median Final RTV [6, 11]: >4
- Tumor Volume T/C [6, 12]: 0.65
- EFS T/C [7]: > 3.3
- EFS activity notation (high, intermediate, indeterminate) [7]: #
- Median Final RTV [7]: 1.6#
- Overall Group Response [7]: PD2 (1 < MS ≦ 3)
- Tumor Volume T/C ([7]; day 21): 0.6
- EFS T/C [8]: 0.9
- Median Final RTV [8]: >4
- Tumor Volume T/C ([8]; day 21): 1.08
- EFS T/C [9]: 0.9
- Median Final RTV [9]: >4
- Tumor Volume T/C ([9]; day 21): 1.34
- EFS T/C [10, 11]: 1.8
- Median Final RTV [10, 11]: >4
- Overall Group Response [10, 11]: PD2 (1 < MS ≦ 3)
- Tumor Volume T/C [10, 12]: 0.49

Source: US20110262525A1, “METHODS OF TREATMENT” (SCHERING CORPORATION, priority 2006, published 2011)
